This assay deals with T1, KRAS G13D (G13D-RT6) peptide on HLA-DQA1*05:01 / HLA-DQB1*03:01 (human).
T1 peptide: YKLVVVGAGDVGKSAL
Briefly: NFAT-luciferase; Jurkat-NFAT-Luc with the TCR and Lovo-DPA0301:DPB0501 cells loaded with G13D-RT6; against wild-type B8.2.4 TCR; full-length, on cells. How it is done:
The TCR mutant (having a mutation present in CDR3 region) lentiviral vector was transduced into Jurkat-NFAT-Luc cell line, […] (G13D-RT6, SEQ ID NO: 20) were used as antigen-presenting cells (referred to as APCs), 2×10⁴ of the TCR-T and 2×10⁴ of the antigen-loaded APCs were co-cultured for 16-24 hours, added with ONE Glo Luciferase to detect the fluorescent signal expression, then TCR Mut RLU/WT RLU (ratio of RLU signal value of TCR mutant to RLU signal value of wild-type B8.2.4TCR) was calculated, and the results were shown in Table 9.

B1: B8.2.4 TCR mutant α97R-A (TCR, V domains shown)
Valpha: AQKITQTQPGMFVQEKEAVTLDCTYDTSDPSYGLFWYKQPSSGEMIFLIYQGSYDQQNATEGRYSLNFQKARKSANLVISASQLGDSAMYFCAMREATGTASKLTFGTGTRLQVTL
Vbeta: DVKVTQSSRYLVKRTGEKVFLECVQDMDHENMFWYRQDPGLGLRLIYFSYDVKMKEKGDIPEGYSVSREKKERFSLILESASTNQTSMYLCASSQTVPPQHFGDGTRLSIL
Take B1: the “TCR Mut RLU/WT RLU” value worked out at 0.13 ratio.

B2: B8.2.4 TCR mutant α97R-K (TCR, V domains shown)
Valpha: AQKITQTQPGMFVQEKEAVTLDCTYDTSDPSYGLFWYKQPSSGEMIFLIYQGSYDQQNATEGRYSLNFQKARKSANLVISASQLGDSAMYFCAMREKTGTASKLTFGTGTRLQVTL
Vbeta: DVKVTQSSRYLVKRTGEKVFLECVQDMDHENMFWYRQDPGLGLRLIYFSYDVKMKEKGDIPEGYSVSREKKERFSLILESASTNQTSMYLCASSQTVPPQHFGDGTRLSIL
In the case of B2, the “TCR Mut RLU/WT RLU” value came to 0.24 ratio.

B3: B8.2.4 TCR mutant α97R-Y (TCR, V domains shown)
Valpha: AQKITQTQPGMFVQEKEAVTLDCTYDTSDPSYGLFWYKQPSSGEMIFLIYQGSYDQQNATEGRYSLNFQKARKSANLVISASQLGDSAMYFCAMREYTGTASKLTFGTGTRLQVTL
Vbeta: DVKVTQSSRYLVKRTGEKVFLECVQDMDHENMFWYRQDPGLGLRLIYFSYDVKMKEKGDIPEGYSVSREKKERFSLILESASTNQTSMYLCASSQTVPPQHFGDGTRLSIL
On to B3, for which the “TCR Mut RLU/WT RLU” value amounted to 0.16 ratio.

B4: B8.2.4 TCR mutant α97R-E (TCR, V domains shown)
Valpha: AQKITQTQPGMFVQEKEAVTLDCTYDTSDPSYGLFWYKQPSSGEMIFLIYQGSYDQQNATEGRYSLNFQKARKSANLVISASQLGDSAMYFCAMREETGTASKLTFGTGTRLQVTL
Vbeta: DVKVTQSSRYLVKRTGEKVFLECVQDMDHENMFWYRQDPGLGLRLIYFSYDVKMKEKGDIPEGYSVSREKKERFSLILESASTNQTSMYLCASSQTVPPQHFGDGTRLSIL
On to B4, for which the “TCR Mut RLU/WT RLU” value was found to be 0.16 ratio.

B5: B8.2.4 TCR mutant α97R-V (TCR, V domains shown)
Valpha: AQKITQTQPGMFVQEKEAVTLDCTYDTSDPSYGLFWYKQPSSGEMIFLIYQGSYDQQNATEGRYSLNFQKARKSANLVISASQLGDSAMYFCAMREVTGTASKLTFGTGTRLQVTL
Vbeta: DVKVTQSSRYLVKRTGEKVFLECVQDMDHENMFWYRQDPGLGLRLIYFSYDVKMKEKGDIPEGYSVSREKKERFSLILESASTNQTSMYLCASSQTVPPQHFGDGTRLSIL
Turning to B5, the “TCR Mut RLU/WT RLU” value was 0.16 ratio.

B6: B8.2.4 TCR mutant α97R-W (TCR, V domains shown)
Valpha: AQKITQTQPGMFVQEKEAVTLDCTYDTSDPSYGLFWYKQPSSGEMIFLIYQGSYDQQNATEGRYSLNFQKARKSANLVISASQLGDSAMYFCAMREWTGTASKLTFGTGTRLQVTL
Vbeta: DVKVTQSSRYLVKRTGEKVFLECVQDMDHENMFWYRQDPGLGLRLIYFSYDVKMKEKGDIPEGYSVSREKKERFSLILESASTNQTSMYLCASSQTVPPQHFGDGTRLSIL
As for B6, the “TCR Mut RLU/WT RLU” value came out at 0.18 ratio.

B7: B8.2.4 TCR mutant α97R-S (TCR, V domains shown)
Valpha: AQKITQTQPGMFVQEKEAVTLDCTYDTSDPSYGLFWYKQPSSGEMIFLIYQGSYDQQNATEGRYSLNFQKARKSANLVISASQLGDSAMYFCAMRESTGTASKLTFGTGTRLQVTL
Vbeta: DVKVTQSSRYLVKRTGEKVFLECVQDMDHENMFWYRQDPGLGLRLIYFSYDVKMKEKGDIPEGYSVSREKKERFSLILESASTNQTSMYLCASSQTVPPQHFGDGTRLSIL
For the molecule B7, the “TCR Mut RLU/WT RLU” value was 0.22 ratio.

B8: B8.2.4 TCR mutant α97R-I (TCR, V domains shown)
Valpha: AQKITQTQPGMFVQEKEAVTLDCTYDTSDPSYGLFWYKQPSSGEMIFLIYQGSYDQQNATEGRYSLNFQKARKSANLVISASQLGDSAMYFCAMREITGTASKLTFGTGTRLQVTL
Vbeta: DVKVTQSSRYLVKRTGEKVFLECVQDMDHENMFWYRQDPGLGLRLIYFSYDVKMKEKGDIPEGYSVSREKKERFSLILESASTNQTSMYLCASSQTVPPQHFGDGTRLSIL
With B8, the “TCR Mut RLU/WT RLU” value stood at 0.16 ratio.

B9: B8.2.4 TCR mutant α97R-N (TCR, V domains shown)
Valpha: AQKITQTQPGMFVQEKEAVTLDCTYDTSDPSYGLFWYKQPSSGEMIFLIYQGSYDQQNATEGRYSLNFQKARKSANLVISASQLGDSAMYFCAMRENTGTASKLTFGTGTRLQVTL
Vbeta: DVKVTQSSRYLVKRTGEKVFLECVQDMDHENMFWYRQDPGLGLRLIYFSYDVKMKEKGDIPEGYSVSREKKERFSLILESASTNQTSMYLCASSQTVPPQHFGDGTRLSIL
Regarding B9, the “TCR Mut RLU/WT RLU” value is 0.16 ratio.

B10: B8.2.4 TCR mutant α97R-M (TCR, V domains shown)
Valpha: AQKITQTQPGMFVQEKEAVTLDCTYDTSDPSYGLFWYKQPSSGEMIFLIYQGSYDQQNATEGRYSLNFQKARKSANLVISASQLGDSAMYFCAMREMTGTASKLTFGTGTRLQVTL
Vbeta: DVKVTQSSRYLVKRTGEKVFLECVQDMDHENMFWYRQDPGLGLRLIYFSYDVKMKEKGDIPEGYSVSREKKERFSLILESASTNQTSMYLCASSQTVPPQHFGDGTRLSIL
Turning to B10, the “TCR Mut RLU/WT RLU” value came to 0.17 ratio.

B11: B8.2.4 TCR mutant α97R-D (TCR, V domains shown)
Valpha: AQKITQTQPGMFVQEKEAVTLDCTYDTSDPSYGLFWYKQPSSGEMIFLIYQGSYDQQNATEGRYSLNFQKARKSANLVISASQLGDSAMYFCAMREDTGTASKLTFGTGTRLQVTL
Vbeta: DVKVTQSSRYLVKRTGEKVFLECVQDMDHENMFWYRQDPGLGLRLIYFSYDVKMKEKGDIPEGYSVSREKKERFSLILESASTNQTSMYLCASSQTVPPQHFGDGTRLSIL
Turning to B11, the “TCR Mut RLU/WT RLU” value amounted to 0.17 ratio.

B12: B8.2.4 TCR mutant α97R-T (TCR, V domains shown)
Valpha: AQKITQTQPGMFVQEKEAVTLDCTYDTSDPSYGLFWYKQPSSGEMIFLIYQGSYDQQNATEGRYSLNFQKARKSANLVISASQLGDSAMYFCAMRETTGTASKLTFGTGTRLQVTL
Vbeta: DVKVTQSSRYLVKRTGEKVFLECVQDMDHENMFWYRQDPGLGLRLIYFSYDVKMKEKGDIPEGYSVSREKKERFSLILESASTNQTSMYLCASSQTVPPQHFGDGTRLSIL
Consider B12, for which the “TCR Mut RLU/WT RLU” value stood at 0.23 ratio.

B13: B8.2.4 TCR mutant α97R-H (TCR, V domains shown)
Valpha: AQKITQTQPGMFVQEKEAVTLDCTYDTSDPSYGLFWYKQPSSGEMIFLIYQGSYDQQNATEGRYSLNFQKARKSANLVISASQLGDSAMYFCAMREHTGTASKLTFGTGTRLQVTL
Vbeta: DVKVTQSSRYLVKRTGEKVFLECVQDMDHENMFWYRQDPGLGLRLIYFSYDVKMKEKGDIPEGYSVSREKKERFSLILESASTNQTSMYLCASSQTVPPQHFGDGTRLSIL
Take B13: the “TCR Mut RLU/WT RLU” value was found to be 0.13 ratio.

B14: B8.2.4 TCR mutant α97R-Q (TCR, V domains shown)
Valpha: AQKITQTQPGMFVQEKEAVTLDCTYDTSDPSYGLFWYKQPSSGEMIFLIYQGSYDQQNATEGRYSLNFQKARKSANLVISASQLGDSAMYFCAMREQTGTASKLTFGTGTRLQVTL
Vbeta: DVKVTQSSRYLVKRTGEKVFLECVQDMDHENMFWYRQDPGLGLRLIYFSYDVKMKEKGDIPEGYSVSREKKERFSLILESASTNQTSMYLCASSQTVPPQHFGDGTRLSIL
Take B14: the “TCR Mut RLU/WT RLU” value was 0.16 ratio.

B15: B8.2.4 TCR mutant α97R-C (TCR, V domains shown)
Valpha: AQKITQTQPGMFVQEKEAVTLDCTYDTSDPSYGLFWYKQPSSGEMIFLIYQGSYDQQNATEGRYSLNFQKARKSANLVISASQLGDSAMYFCAMRECTGTASKLTFGTGTRLQVTL
Vbeta: DVKVTQSSRYLVKRTGEKVFLECVQDMDHENMFWYRQDPGLGLRLIYFSYDVKMKEKGDIPEGYSVSREKKERFSLILESASTNQTSMYLCASSQTVPPQHFGDGTRLSIL
Regarding B15, the “TCR Mut RLU/WT RLU” value was determined as 0.27 ratio.

The values are drawn from patent US20240123070A1 (published 2024).
